Assay results as given in paper PMC11695602 (Communications Biology, 2025).

Assays:
[1] = target: recombinant human p53 (p53-FLAG) (human, UniProt P04637 1-393); test: co-IP
[2] = target: T1, recombinant human CTNNA3 (CTNNA3-FLAG) (human, UniProt Q9UI47-1 1-895); test: co-IP
T1 sequence (looked up): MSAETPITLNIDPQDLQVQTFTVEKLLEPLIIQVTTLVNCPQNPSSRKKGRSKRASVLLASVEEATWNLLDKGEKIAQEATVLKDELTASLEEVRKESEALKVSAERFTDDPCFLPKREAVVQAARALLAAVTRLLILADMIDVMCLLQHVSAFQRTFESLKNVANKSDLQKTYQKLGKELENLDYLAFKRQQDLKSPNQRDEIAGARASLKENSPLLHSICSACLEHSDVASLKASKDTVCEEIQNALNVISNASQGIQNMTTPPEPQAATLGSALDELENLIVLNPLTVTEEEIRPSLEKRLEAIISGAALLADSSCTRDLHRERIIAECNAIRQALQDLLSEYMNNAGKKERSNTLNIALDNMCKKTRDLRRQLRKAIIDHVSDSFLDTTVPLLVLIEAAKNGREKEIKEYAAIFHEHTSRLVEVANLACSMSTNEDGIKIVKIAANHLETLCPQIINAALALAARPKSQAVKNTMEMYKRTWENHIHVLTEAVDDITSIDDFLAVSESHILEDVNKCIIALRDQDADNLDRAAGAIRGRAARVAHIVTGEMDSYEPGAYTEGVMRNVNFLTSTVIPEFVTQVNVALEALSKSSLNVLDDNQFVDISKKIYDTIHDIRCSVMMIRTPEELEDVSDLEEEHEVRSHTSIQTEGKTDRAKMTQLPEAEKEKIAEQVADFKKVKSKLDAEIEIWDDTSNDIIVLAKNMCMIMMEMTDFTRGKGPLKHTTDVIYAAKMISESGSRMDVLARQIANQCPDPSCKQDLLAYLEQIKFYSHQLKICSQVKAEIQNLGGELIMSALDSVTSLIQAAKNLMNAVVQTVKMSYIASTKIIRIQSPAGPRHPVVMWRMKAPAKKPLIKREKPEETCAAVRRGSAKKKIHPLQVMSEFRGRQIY

[3] = target: T1, recombinant human CTNNA3 (CTNNA3-FLAG); test: MST
[4] = target: T1, recombinant human CTNNA3 (CTNNA3-FLAG); test: BLI

Sequence of recombinant human p53 (p53-FLAG) (P04637 whole entry): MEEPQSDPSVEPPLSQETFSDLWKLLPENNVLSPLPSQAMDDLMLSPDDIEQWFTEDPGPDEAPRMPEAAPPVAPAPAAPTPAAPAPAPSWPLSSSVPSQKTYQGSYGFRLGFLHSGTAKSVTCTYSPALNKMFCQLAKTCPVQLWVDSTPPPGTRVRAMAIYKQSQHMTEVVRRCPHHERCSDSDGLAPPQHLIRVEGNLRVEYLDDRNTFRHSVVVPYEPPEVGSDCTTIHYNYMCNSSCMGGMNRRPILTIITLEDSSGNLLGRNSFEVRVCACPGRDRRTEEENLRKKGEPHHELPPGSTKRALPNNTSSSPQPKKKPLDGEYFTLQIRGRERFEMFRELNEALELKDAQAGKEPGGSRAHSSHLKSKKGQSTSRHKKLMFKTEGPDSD

B1: recombinant human FLAG-tagged fortilin (fortilin-FLAG) (natural protein, UniProt P13693 1-172, looked up)
chain: MIIYRDLISHDEMFSDIYKIREIADGLCLEVEGKMVSRTEGNIDDSLIGGNASAEGPEGEGTESTVITGVDIVMNHHLQETSFTKEAYKKYIKDYMKSIKGKLEEQRPERVKPFMTGAAEQIKHILANFKNYQFFIGENMNPDGMVALLDYREDGVTPYMIFFKDGLEMEKC
[1]
  binding result: binds
[2]
  binding result: binds

B2: recombinant human fortilin (rh-fortilin), Strep-tagged, red-maleimide-labelled (natural protein, UniProt P13693 1-172, looked up)
chain: B1 chain
modifications: red-maleimide fluorescent dye (Monolith red-maleimide 2nd generation protein labeling kit)
[3]
  Kd: 33.2 nM

B3: recombinant human fortilin (rh-fortilin), Strep-tagged, biotinylated (natural protein, UniProt P13693 1-172, looked up)
chain: B1 chain
modifications: biotin
[4]
  Kd: 36.1 nM
